From patent US20240116985A1 (published 2024)
Starred links: 1 amine or outer side, 2 acyl side, 3 side chain; linkers in the order of their positions; H or OH if unused. Positions of bridges follow the written chain, without caps; N, C: chain ends. Non-standard residues stand in square brackets, D forms with d. Primed or numbered codes have the meaning given here. B5(16) = 2-amino-2-(pent-4-en-1-yl)hept-6-enoic acid = 2,2-bis(4-pentenyl)glycine (stitching residue), C=CCCCC(CCCC=C)(N[*:1])C(=O)[*:2]; B5(4) = 2,2-bis(4-pentenyl)glycine = 2-amino-2-(pent-4-en-1-yl)hept-6-enoic acid (stitching residue), C=CCCCC(CCCC=C)(N[*:1])C(=O)[*:2]; PyrS2 = (S)-3-amino-1-((pent-4-en-1-yloxy)carbonyl)pyrrolidine-3-carboxylic acid, C=CCCCOC(=O)N1CC[C@@](N[*:1])(C(=O)[*:2])C1; 2COOHF″ = O=C([C@H](Cc1ccccc1C(=O)[*:3])N[*:1])[*:2]; Bta = N[C@@H](Cc1csc2ccccc12)C(=O)O; αAllylPro = C=CC[C@@]1(C(=O)O)CCCN1; tBuAla = CC(C)(C)C[C@H](N)C(=O)O; 3Thi = N[C@@H](Cc1ccsc1)C(=O)O; Thr(ol) = C[C@@H](O)[C@H](N)CO; PyrS2(4) = not defined here

T1: beta-catenin in DLD1 TCF/LEF luciferase reporter cells (UniProt P35222 1-781)
T1 sequence (looked up): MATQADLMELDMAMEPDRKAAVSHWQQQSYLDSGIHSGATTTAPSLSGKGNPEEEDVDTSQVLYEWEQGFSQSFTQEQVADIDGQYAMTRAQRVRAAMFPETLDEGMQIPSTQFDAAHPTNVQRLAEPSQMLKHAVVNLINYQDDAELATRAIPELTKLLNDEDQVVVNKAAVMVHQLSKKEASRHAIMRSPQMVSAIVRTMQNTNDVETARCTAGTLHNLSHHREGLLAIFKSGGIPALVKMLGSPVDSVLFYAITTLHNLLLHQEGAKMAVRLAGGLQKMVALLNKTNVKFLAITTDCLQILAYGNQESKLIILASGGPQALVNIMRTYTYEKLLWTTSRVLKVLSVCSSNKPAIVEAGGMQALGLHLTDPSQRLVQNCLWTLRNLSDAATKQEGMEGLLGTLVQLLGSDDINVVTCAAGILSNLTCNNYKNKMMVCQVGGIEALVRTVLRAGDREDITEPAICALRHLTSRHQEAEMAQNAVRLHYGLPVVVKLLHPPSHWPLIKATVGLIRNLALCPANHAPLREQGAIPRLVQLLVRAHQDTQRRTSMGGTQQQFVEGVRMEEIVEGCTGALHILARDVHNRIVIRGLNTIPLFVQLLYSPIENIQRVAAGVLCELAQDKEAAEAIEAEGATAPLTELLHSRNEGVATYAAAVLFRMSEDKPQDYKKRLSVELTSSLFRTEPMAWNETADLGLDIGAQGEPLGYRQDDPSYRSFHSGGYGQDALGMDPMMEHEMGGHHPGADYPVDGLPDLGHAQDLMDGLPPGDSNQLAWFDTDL

T2: B-cat-Halo (UniProt P35222 1-781)
T2 sequence (looked up): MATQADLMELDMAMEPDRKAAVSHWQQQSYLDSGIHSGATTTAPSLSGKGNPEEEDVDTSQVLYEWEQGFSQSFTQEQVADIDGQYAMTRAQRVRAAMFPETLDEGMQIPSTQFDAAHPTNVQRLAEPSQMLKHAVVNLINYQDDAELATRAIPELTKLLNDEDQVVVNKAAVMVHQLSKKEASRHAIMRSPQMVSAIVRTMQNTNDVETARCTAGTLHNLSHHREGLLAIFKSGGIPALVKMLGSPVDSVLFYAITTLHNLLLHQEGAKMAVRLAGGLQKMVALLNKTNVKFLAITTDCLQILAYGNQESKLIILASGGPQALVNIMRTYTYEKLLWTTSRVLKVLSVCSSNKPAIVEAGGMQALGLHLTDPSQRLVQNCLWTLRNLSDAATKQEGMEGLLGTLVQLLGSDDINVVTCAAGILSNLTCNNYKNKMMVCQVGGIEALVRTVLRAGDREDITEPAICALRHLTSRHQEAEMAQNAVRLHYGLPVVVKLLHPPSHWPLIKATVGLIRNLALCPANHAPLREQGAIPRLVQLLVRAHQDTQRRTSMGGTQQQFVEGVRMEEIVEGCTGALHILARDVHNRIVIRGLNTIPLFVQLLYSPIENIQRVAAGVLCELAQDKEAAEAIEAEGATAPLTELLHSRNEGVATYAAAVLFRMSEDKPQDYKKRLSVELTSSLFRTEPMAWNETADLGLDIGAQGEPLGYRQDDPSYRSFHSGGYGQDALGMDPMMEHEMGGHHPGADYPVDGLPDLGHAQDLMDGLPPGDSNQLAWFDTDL

T3: beta-catenin (in DLD1 TCF/LEF luciferase reporter cells) (UniProt P35222 1-781)
T3 sequence (looked up): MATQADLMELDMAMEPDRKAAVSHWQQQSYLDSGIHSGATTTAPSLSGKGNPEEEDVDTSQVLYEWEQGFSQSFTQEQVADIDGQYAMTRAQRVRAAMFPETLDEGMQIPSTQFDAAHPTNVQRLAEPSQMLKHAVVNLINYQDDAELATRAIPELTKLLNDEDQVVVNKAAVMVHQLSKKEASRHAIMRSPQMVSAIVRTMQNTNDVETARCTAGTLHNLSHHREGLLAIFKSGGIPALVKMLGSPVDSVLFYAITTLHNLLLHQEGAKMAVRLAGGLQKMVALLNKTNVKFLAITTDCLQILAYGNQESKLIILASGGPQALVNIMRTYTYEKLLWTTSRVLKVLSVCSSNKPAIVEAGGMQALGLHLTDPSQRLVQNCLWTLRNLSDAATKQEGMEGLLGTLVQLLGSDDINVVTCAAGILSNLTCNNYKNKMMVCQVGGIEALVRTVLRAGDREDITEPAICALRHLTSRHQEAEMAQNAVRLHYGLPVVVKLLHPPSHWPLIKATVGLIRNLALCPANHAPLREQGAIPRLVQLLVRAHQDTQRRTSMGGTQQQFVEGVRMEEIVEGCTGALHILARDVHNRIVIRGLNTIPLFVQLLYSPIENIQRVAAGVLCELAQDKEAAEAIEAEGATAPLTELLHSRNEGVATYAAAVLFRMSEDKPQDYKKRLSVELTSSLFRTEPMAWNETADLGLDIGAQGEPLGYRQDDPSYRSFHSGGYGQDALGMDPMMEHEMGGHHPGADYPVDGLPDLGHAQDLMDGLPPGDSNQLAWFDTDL


Columns and labels:
Test in all cases: cell-based or functional assay
[1] = biological target: T1, beta-catenin in DLD1 TCF/LEF luciferase …
[2] = biological target: T2, B-cat-Halo
[3] = biological target: T3, beta-catenin (in DLD1 TCF/LEF …)

Row | DLD1 4% Abs IC50 [1] [µM] | NanoBRET Abs IC50 (uM); B-cat-Halo / TCF4-Luc in HEK293 cells [2] [µM] | DLD1 4% Abs IC50 (uM); TCF/LEF luciferase reporter in DLD1 cells [3] [µM] | Binder
1 | 1.3 | – | – | Ac-[αAllylPro]D[tBuAla][B5(16)]D[2COOHF″]AAFL[PyrS2(4)][3Thi][Bta]S-NH2 (staple 1-4, 4-11; not fully specified; reading uncertain) [I-1667]
2 | – | 21.4 | 4 | Ac-[αAllylPro]D[tBuAla][B5(4)]DDAAFL[PyrS2][3Thi][Bta][Thr(ol)] (staple 1-4, 4-11) [I-1302]
